Source: patent US20240349752A1 (CLARA FOODS, published 2024)

Molecular target: bovine trypsin (bovine, UniProt P00760 24-246)
Test: cell-based or functional assay

Chain of bovine trypsin (P00760 24-246): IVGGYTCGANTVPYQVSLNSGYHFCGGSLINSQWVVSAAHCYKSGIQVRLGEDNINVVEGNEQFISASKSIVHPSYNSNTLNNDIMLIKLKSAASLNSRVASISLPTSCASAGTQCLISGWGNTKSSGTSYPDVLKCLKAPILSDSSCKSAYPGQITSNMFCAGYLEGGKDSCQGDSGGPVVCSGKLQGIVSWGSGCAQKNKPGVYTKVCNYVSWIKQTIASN

B1: Native chicken Ovomucoid (other)
chain: AEVDCSRFPNATDKEGKDVLVCNKDLRPICGTDGVTYTNDCLLCAYSIEFGTNISKEHDGECKETVPMNCSSYANTTSEDGKVMVLCNRAFNPVCGTDGVTYDNECLLCAHKVEQGASVDKRHDGGCRKELAAVSVDCSEYPKPDCTAEDRPLCGSDNKTYGNKCNFCNAVVESNGTLTLSHFGKC
modifications: complex branched N-linked glycosylation (includes mannose)
Trypsin inhibition activity: 13700 TIU/g
